The values that follow come from article PMC12064060 (mAbs, 2025).

The target in this test is Nb4 × 3 (trimeric Nb4, three VHH domains in tandem) (dromedary). In words: ELISA.

B1: SARS-CoV-1 RBD-Fc (Fc fusion)
chain: not shown
In the case of B1, the binding result was “binds”.
